These results are taken from PMC4022648.

Where “and” joins values, the source holds several entries; their conditions need not be identical. Equal entries are not always repeated.

The target of test [1] is naïve Hsp60 (human Hsp60 with its mitochondrial import signal) (human) (UniProt P10809). Put plainly: SAXS; 20 °C, Guinier analysis; naïve Hsp60 at 23.8 µM.
Test [2] has the same target. Description: SAXS; 20 °C, Guinier analysis; naïve Hsp60 at 79.5 µM, GroEL at 52.5 µM.
Test [3] shares this target. Description: SEC; HPLC size exclusion, Shodex 806 and 804 in series, 24 °C, 20 mM Tris-HCl pH 8 + 10% glycerol; naïve Hsp60 at 0.8-16.0 µM, compared with GroEL at 7.0 µM and BSA.
Test [4] has the same target. Put plainly: static light scattering; Rayleigh ratio at 90° divided by concentration; naïve Hsp60 at 1.6-47.6 µM; compared with ideal lines for tetradecamer (882 kDa) and heptamer (441 kDa).
For test [5] the target is unchanged. Description: native gel or EMSA; Blue native PAGE, 4-16% Bis-Tris gels, sample buffer with 1% digitonin and 0.5% DDM, pH 7.2, Coomassie G-250; naïve Hsp60 at 1.9-20.7 µM, GroEL at 1.0-18.9 µM. For orientation: Mobility shift assays separate free from complexed probe on a gel.

Consider “naïve Hsp60 (human Hsp60 with its mitochondrial import signal) (from UniProt P10809 27-573) (natural protein)”, for which the stoichiometry N in test [1] is 7 and 14; in test [2], 14; in test [3], 7 and 14; in test [4] it was 7 and 14; in test [5], 7 and 14.

One may read the stoichiometry N as a count of units in the complex or per binding partner.
